Laboratory results taken from patent US20240158497A1 (published 2024).

T1: extracellular domain of human LEPR, GPI-anchored, on HEK293/hLEPR-GPI cells (human, UniProt P48357 22-839, GPI anchor at the C-terminus ; GPI anchor at the C-terminus, added through the carboxypeptidase M signal peptide. The N-terminal myc-myc tag is not written.)
T1 sequence: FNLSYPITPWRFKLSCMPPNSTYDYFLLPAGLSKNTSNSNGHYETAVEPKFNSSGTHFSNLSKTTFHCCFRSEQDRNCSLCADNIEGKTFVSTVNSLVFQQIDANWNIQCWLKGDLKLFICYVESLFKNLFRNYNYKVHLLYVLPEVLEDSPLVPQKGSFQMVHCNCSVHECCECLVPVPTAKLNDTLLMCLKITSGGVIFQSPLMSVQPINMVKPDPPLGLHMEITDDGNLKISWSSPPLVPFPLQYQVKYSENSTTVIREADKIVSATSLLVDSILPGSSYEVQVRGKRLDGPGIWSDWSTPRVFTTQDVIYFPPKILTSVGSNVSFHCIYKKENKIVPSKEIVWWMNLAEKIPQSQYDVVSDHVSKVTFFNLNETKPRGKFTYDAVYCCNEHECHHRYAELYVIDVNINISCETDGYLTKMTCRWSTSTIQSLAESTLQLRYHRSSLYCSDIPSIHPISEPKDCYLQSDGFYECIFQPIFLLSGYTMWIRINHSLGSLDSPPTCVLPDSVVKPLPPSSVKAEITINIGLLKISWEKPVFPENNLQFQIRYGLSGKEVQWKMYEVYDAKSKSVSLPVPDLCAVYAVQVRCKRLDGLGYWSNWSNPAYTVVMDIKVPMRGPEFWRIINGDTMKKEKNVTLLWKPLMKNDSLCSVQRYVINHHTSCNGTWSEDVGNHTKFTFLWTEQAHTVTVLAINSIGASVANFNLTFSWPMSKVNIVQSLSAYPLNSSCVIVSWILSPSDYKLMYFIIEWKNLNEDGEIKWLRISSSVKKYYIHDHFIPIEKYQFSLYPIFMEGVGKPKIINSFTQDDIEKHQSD

T2: full length human GP130 (L2V natural variant) on HEK293/Stat3-luc/gp130-2X Sort cells (human, UniProt P40189 23-918)
T2 construct: whole, on cells; Stably over-expressed on HEK293 cells, sorted twice for high expression; also called HEK293/gp130 2X Sort
T2 sequence (looked up): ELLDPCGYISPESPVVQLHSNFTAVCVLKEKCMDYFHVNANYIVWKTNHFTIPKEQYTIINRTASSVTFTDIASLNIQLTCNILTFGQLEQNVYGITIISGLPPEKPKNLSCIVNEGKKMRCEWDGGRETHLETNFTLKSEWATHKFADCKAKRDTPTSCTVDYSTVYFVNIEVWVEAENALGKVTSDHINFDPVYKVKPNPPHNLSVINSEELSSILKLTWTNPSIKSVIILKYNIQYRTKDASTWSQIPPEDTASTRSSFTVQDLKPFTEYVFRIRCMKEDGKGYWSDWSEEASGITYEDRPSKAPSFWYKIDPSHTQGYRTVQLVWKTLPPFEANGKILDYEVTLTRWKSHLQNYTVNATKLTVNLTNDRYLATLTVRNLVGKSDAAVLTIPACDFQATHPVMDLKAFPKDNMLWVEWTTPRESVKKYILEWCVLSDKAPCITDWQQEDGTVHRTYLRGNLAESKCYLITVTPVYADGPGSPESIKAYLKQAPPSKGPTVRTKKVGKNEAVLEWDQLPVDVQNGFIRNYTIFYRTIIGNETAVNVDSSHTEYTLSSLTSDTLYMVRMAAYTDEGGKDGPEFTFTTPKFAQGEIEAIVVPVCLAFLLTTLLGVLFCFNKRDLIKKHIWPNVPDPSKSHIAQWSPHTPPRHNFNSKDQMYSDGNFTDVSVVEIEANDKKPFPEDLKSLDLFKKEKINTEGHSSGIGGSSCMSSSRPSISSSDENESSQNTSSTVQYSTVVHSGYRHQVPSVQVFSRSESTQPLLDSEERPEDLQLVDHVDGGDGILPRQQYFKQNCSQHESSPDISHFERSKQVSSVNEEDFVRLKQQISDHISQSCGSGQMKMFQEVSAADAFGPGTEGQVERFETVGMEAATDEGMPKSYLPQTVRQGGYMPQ


Columns and labels:
[1] = molecular target: T1, extracellular domain of human LEPR, …; experiment: FACS, 200 nM antibody on HEK293/hLEPR-GPI cells, no Leptin
Protocol: (§1) For the FACS analysis, 0.5×10^6 cells/well of HEK293 parental cells, HEK293/Stat3-luc/gp130-2 X Sort cells, and HEK293/hLEPR-GPI cells, were incubated with 200 nM of the conventional antibodies against either GP130 or LEPR or with LEPRxGP130 bispecific antibodies, along with isotype control antibodies at 4° C. in PBS (without calcium and magnesium) containing 2% FBS.
(§2) Cells were fixed using BD CytoFix™ (Becton Dickinson, #554655) and analyzed on an IQue® (Intellicyt) Flow Cytometer. Unstained and secondary antibody alone controls were also tested for all cell lines. The results were analyzed using ForeCyt® (IntelliCyt) and FlowJo version 10 softwares to determine the geometric means of fluorescence for viable cells.

[2] = molecular target: T1, extracellular domain of human LEPR, …; experiment: FACS, 200 nM antibody on HEK293/hLEPR-GPI cells, 1 µM Leptin
Protocol: as §1, §2

[3] = molecular target: T2, full length human GP130 (L2V natural …); experiment: FACS, 200 nM antibody on HEK293/gp130 2X Sort cells
Protocol: as §1, §2

Binding Ratio, normalized to unstained sample (FL4-A) [1] [fold]	Binding Ratio, normalized to unstained sample (FL4-A) [2] [fold]	Binding Ratio, normalized to unstained sample (FL4-A) [3] [fold]	Binder
4710	4250		mAb18445 (antibody, V domains shown, Conventional anti-LEPR antibody; also called mAB18445 (anti-LEPR mAb)) VH: QVQLQESGPGLVKPSQTLSLTCTVSGGSISSGGDYWSWIRQLPGKGLEWIGYIYYSGSAYYNPSLKSRGTISIDTSKNQFSLKLTSVTAADTAVYFCVKLRFLEWFLGGWFGPWGQGTLVTVSS VL: not shown
21		235	mAb16683 (antibody, V domains shown, Conventional anti-GP130 antibody; also called mAb16683 (anti-GP130 mAb)) VH: QVQLVESGGGLVKPGGSLRLSCAASGFTFSDYYMTWIRQTPGKGLDWVSYISSSGTNKYNADSVKGRFTISRDNAKNSLYLQMNSLRAEDTAVYYCVRDPPWGMDVWGQGTTVTVSS VL: not shown
7020	6390		mAb18446 (antibody, V domains shown, Conventional anti-LEPR antibody; also called mAB18446 (anti-LEPR mAb)) VH: EVQLVESGGGLVQPGGSLRLSCAASGFTFSNYGMTWVRQAPGKGLEWVSAITGGGGSTYYSNSVKGRFTISRDNSKNTVYLRMNSVRAEDTAVYYCAKYKWNFVDDWGQGTTVTVSS VL: not shown
